Paper PMC11931385, “Structural and functional analysis of cancer-associated missense variants in the retinoblastoma protein pocket domain” (The Journal of Biological Chemistry, 2025)
Substitutions are numbered along the chain they refer to. Names and notes keep the numbering of the source. No end group written: not given here. TMR = tetramethyl rhodamine dye

Key:
Assay in all cases: fluorescence polarisation; 37 °C, after the 25 °C reading ramped over 7 min to 37 °C and 2 min incubation; unlabeled Rb^P against 1.5 nM TMR-E2F1^TD or 7.5 nM TMR-E7^LxCxE; 25 mM Tris pH 8.0, 200 mM NaCl, 1 mM DTT, 0.1% Tween-20; apparent Kd
Details in all cases: both partners purified
Rb^P R656W = molecular target: T1, Rb^P R656W (human, UniProt P06400 380-788, R656W)
T1 construct: also called variant 49
T1 sequence (looked up): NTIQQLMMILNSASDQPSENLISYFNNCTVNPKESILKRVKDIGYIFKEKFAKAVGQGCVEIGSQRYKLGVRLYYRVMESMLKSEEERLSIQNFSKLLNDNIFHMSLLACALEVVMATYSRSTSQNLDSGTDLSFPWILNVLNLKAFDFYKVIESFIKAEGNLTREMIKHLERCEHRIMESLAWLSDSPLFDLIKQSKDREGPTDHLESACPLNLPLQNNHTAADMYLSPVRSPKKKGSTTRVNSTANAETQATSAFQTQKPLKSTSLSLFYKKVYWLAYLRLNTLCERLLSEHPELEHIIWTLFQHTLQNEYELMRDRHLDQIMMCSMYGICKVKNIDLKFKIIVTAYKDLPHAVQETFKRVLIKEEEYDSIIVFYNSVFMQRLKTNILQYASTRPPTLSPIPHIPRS

Rb^P I703V = molecular target: T2, Rb^P I703V (human, UniProt P06400 380-788, I703V)
T2 construct: also called variant 65
T2 sequence (looked up): T1 sequence (looked up) with W277R, I324V

[1] = molecular target: T3, retinoblastoma protein pocket domain (Rb^P), wild type (human, UniProt P06400 380-788)
T3 construct: also called WT Rb^P; WT
T3 sequence (looked up): T1 sequence (looked up) with W277R

Rb^P S751C = molecular target: T4, Rb^P S751C (human, UniProt P06400 380-788, S751C)
T4 construct: also called variant 71
T4 sequence (looked up): T1 sequence (looked up) with W277R, S372C

Rb^P R611S = molecular target: T5, Rb^P R611S (human, UniProt P06400 380-788, R611S)
T5 construct: also called variant 38
T5 sequence (looked up): T1 sequence (looked up) with R232S, W277R

B1: TMR-E2F1^TD, peptide of the E2F1 transactivation domain (peptide)
peptide: {TMR}-GEGIRDLFDCDFGDLTPLD
notes: also called E2F^TD; source: synthetic peptide, bought: GenScript
- Kd (Rb^P R656W): 77 nM
- Kd (Rb^P I703V): 99 nM
- Kd [1]: 22 nM
- Kd (Rb^P S751C): 137 nM
- Kd (Rb^P R611S): 30 nM

B2: TMR-E7^LxCxE, LxCxE peptide of the E7 oncoprotein from HPV (peptide)
peptide: DLYCYEQLN
modifications: also: TMR label, position not given here
notes: source: synthetic peptide, bought: GenScript
- Kd (Rb^P R656W): 19 nM
- Kd (Rb^P I703V): 53 nM
- Kd [1]: 12 nM
- Kd (Rb^P S751C): 98 nM
- Kd (Rb^P R611S): 15 nM
